Data as given in patent US20250002577A1 (ONCORESPONSE, published 2025).
Changes are numbered by the printed parent chain.

B1: B21A1 (antibody, human IgG1, kappa)
heavy: not shown
light: DIVMTQTPASVEAAVGGTVTINCQASGNIYSFLAWYQQKPGQPPKLLIYTASNLETGVPSRFSGSGSGTEYTLTISGVQCDDAATYYCLGGLYSSDVSYAFGGGTEVVVKRTVAAPSVFIFPPSDEQLKSGTASVVCLLNNFYPREAKVQWKVDNALQSGNSQESVTEQDSKDSTYSLSSTLTLSKADYEKHKVYACEVTHQGLSSPVTKSFNRGEC
notes: Rabbit/human chimera, human IgG1/kappa; AF647-conjugated in the flow cytometry titrations; also called B21A1 chimera IgG1; parent B21A1
B2: B21H1-15 (antibody, human IgG1, kappa)
heavy: not shown
light: B1 light with V3Q, A9S, S10T, A14S, N22T, V78L, C80S
notes: humanized IgG1/kappa, VH1+VL5
B3: B21H1-33 (antibody, human IgG1, kappa)
heavy: not shown
light: DIVMTQSPSSVSASVGDRVTITCQASGNIYSFLAWYQQKPGKAPKLLIYTASNLETGVPSRFSGSGSGTDFTLTISSLQPEDFATYYCLGGLYSSDVSYAFGGGTKVVIKRTVAAPSVFIFPPSDEQLKSGTASVVCLLNNFYPREAKVQWKVDNALQSGNSQESVTEQDSKDSTYSLSSTLTLSKADYEKHKVYACEVTHQGLSSPVTKSFNRGEC
notes: humanized IgG1/kappa, VH3+VL3
B4: B21H1-12 (antibody, human IgG1, kappa)
heavy: not shown
light: B3 light with V3Q, V11L, A43V, F71Y, P80S, F83A
notes: humanized IgG1/kappa, VH1+VL2

molecular target: T1, human LILRB2 on cells (human, UniProt Q8N423 22-597); assay: flow cytometry, LILRB2-HEK293T cells, AF647-labelled antibody
T1 construct: whole, on cells; also called hLILRB2; LILRB2-HEK293T
Experimental: (§1) While LILRB2 expression is mostly restricted to myeloid cells, LILRB1 has a broader expression on immune cell subsets, including B cells, T cells and NK cells.
(§2) Frozen cells were removed from storage in vapor phase liquid nitrogen and thawed by gentle swirling in a water bath at 37° C., then resuspended in DMEM media with 10% FBS. Cells were placed in a 15 mL conical tube and centrifuged at 300×g for 5 min, then supernatant was removed. Cells were resuspended in DMEM+10% FBS at a cell density of 2×10⁵ cells/mL in a T75 flask for culturing, and incubated at 37° C., 5% CO₂ for 3 days before passaging. Cells were passaged when the cell density reached 1×10⁶ cell/mL. On the day of the assay, cells were centrifuged, then supernatant was removed. Cells were resuspended in Blocking Buffer B (FACS Buffer containing 10% FBS and 0.5 mg/mL human IgG1 (Athens Research, No. 16-16-090707-1M)+0.05% NaN₃, 5% (w/v)) in a 15 mL conical tube, then incubated at 4° C. for 30 min. […] Cells were incubated with antibodies at 4° C. for 1 h. Cells were washed twice in FACS Buffer (PBS containing 2 mM EDTA+1% FBS+0.05% NaN₃) and then stained with for 10 min with Zombie Violet™ fixable viability dye (BioLegend, No. 423114) at RT, washed with FACS Buffer and resuspend in 75 μL of FACS Buffer for acquisition on a BD FACSymphony™ or BD FACSCanto™ II flow cytometer (BD Biosciences), as described in Example 6.

T1 sequence (Q8N423 22-597): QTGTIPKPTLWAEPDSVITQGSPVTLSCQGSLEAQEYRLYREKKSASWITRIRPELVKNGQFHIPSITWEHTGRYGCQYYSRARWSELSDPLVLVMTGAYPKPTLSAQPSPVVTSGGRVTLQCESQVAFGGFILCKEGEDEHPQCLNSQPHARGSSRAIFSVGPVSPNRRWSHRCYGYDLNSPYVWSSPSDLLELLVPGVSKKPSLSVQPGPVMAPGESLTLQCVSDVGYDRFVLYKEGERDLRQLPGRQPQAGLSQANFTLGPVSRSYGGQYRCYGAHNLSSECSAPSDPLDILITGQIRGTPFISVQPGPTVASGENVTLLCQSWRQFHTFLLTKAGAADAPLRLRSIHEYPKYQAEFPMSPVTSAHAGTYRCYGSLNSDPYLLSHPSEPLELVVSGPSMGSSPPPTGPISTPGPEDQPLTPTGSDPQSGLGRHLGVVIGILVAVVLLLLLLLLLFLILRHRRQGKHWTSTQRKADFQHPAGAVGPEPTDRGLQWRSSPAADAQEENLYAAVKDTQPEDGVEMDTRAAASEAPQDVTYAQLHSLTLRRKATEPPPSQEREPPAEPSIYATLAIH

Row | EC50 [µg/mL] | Binder
1 | 0.0008 | B1
2 | 0.00096 | B2
3 | 0.00144 | B3
4 | 0.00102 | B4

molecular target: T2, human LILRB1 on cells (human, UniProt Q8NHL6 24-650); assay: flow cytometry, 721.221 cells, AF647-labelled antibody
T2 construct: whole, on cells; also called hLILRB1; LILRB1-expressing 721.221 cells
Experimental: as §1, §2

T2 sequence (Q8NHL6 24-650): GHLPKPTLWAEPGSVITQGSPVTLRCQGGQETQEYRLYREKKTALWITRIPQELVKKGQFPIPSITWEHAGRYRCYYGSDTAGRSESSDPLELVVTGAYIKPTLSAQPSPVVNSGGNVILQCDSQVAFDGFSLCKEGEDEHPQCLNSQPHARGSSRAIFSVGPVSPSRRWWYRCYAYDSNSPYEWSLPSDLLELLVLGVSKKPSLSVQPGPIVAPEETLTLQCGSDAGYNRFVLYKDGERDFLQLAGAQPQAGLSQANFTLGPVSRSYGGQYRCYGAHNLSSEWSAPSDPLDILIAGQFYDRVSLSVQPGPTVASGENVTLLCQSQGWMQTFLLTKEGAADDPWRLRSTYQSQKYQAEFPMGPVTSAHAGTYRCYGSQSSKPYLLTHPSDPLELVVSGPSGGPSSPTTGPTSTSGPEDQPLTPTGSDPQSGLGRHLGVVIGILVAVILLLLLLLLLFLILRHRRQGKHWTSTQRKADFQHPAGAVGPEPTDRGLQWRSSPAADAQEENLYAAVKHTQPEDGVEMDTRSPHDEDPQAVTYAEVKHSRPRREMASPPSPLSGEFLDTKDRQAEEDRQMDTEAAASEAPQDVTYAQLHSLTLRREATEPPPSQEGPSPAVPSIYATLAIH

Row | EC50 [µg/mL] | Binder
5 | 0.0448 | B1
6 | 0.0417 | B4

molecular target: T3, recombinant human LILRB2-His (human, UniProt Q8N423 22-461, limits assumed); assay: MSD ELISA, coated antigen, purified IgG1
T3 construct: Bought protein; also called LILRB2 protein
Experimental: (§3) Recombinant human and cynomolgus LILRB1 proteins (R&D Systems, No. 8989-T2-050; ACROBiosystems, No. CDJ-C52H3) and recombinant human and cynomolgus LILRB2 proteins (ACROBiosystems, No. LI2-H5220; No. L12-C52H3) were diluted in PBS to 4 μg/mL and added to a multi-array 384-well high-binding plates (MSD, No. L21XA4) at 10 μL/well and incubated at 4° C. overnight. The plates were washed several times with Wash Buffer (0.05% Tween® 20 in PBS), using a microplate washer and then blocked with 70 μL/well of 5% BSA in PBS for 1 hour (h) at room temperature (RT) with shaking at 700 rpm. After blocking, 20 μL/well of anti-LILRB2/LILRB1 antibodies or isotype control were added to the plates, and the plates were sealed and incubated for 2 h at RT with shaking at 700 rpm. After primary antibody binding, plates were washed five times with 70 μL/well of Wash Buffer (0.05% Tween® 20 in PBS) using a microplate washer. Secondary detection antibody (SULFO-TAG™-labeled goat anti-human IgG antibody (MSD, No. R32AJ-1)) was diluted to 4 μg/mL in assay diluent (1% BSA in PBS) and 10 μL/well was added to plates and incubated at RT protected from light for 1 h, with shaking at 700 rpm. Following incubation, plates were washed five times with Wash Buffer, using a microplate washer. After removal of the final wash, 35 μL/well of MSD Gold Read Buffer B (MSD, No. R60AM-4) was added to all wells using a Multidrop combo washer/dispenser, and plates were read using MESO Sector 600MM instrument (MSD) within 5 minutes (min) after addition of Read Buffer. Signals as counts per minute (cpm) were recorded. EC₅₀ values were calculated using GraphPad Prism based on log concentration of the primary antibodies versus cpm values.

T3 sequence (Q8N423 22-461 limits assumed): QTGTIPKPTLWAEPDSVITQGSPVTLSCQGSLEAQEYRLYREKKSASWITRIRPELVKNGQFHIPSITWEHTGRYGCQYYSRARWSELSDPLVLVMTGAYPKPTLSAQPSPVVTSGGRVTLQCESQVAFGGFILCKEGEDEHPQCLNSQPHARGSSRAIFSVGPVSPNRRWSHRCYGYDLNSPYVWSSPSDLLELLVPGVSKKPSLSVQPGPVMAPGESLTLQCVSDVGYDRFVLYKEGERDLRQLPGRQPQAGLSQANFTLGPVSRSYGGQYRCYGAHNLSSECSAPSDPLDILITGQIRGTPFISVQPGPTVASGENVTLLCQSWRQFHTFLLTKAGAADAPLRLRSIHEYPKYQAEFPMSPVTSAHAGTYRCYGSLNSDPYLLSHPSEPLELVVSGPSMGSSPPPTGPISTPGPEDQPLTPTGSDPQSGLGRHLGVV

Row | EC50 [µg/mL] | Binder
7 | 0.038 | B1
8 | 0.0215 | B2
9 | 0.0225 | B3
10 | 0.0174 | B4

molecular target: T4, recombinant cynomolgus LILRB1 (cynomolgus); assay: MSD ELISA, coated antigen, purified IgG1
T4 construct: Bought protein
Experimental: as §3

Row | EC50 [µg/mL] | Binder
11 | 0.306 | B1
12 | 5.85 | B3

molecular target: T5, recombinant human LILRB1-His (human, UniProt Q8NHL6 24-458); assay: MSD ELISA, coated antigen, purified IgG1
T5 construct: Bought protein; also called LILRB1 protein
Experimental: as §3

T5 sequence (Q8NHL6 24-458 limits assumed): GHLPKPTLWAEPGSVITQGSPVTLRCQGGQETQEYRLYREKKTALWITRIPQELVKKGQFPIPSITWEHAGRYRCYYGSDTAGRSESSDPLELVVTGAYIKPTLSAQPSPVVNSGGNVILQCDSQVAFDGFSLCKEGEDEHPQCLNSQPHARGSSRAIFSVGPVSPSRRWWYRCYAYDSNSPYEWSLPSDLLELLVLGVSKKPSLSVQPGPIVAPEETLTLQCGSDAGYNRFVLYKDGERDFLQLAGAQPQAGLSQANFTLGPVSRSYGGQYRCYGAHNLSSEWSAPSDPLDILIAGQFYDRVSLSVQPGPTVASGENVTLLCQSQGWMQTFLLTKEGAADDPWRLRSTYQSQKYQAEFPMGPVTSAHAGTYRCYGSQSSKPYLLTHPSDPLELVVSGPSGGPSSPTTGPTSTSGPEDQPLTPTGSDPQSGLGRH

Row | EC50 [µg/mL] | Binder
13 | 0.0105 | B1
14 | 0.00563 | B2
15 | 0.00616 | B3
16 | 0.00614 | B4

molecular target: T6, human LILRA4 on HEK293-6E cells (human, UniProt P59901 24-499); assay: flow cytometry, HEK293-6E transfectants
T6 construct: whole, on cells; also called hLILRA4
Experimental: (§4) To determine that the parent chimera anti LILRB2/1 antibody specifically binds to LILRB2 and LILRB1 and not to other LILRB and LILRA family members, a cross-reactivity assay was performed. Cross-reactivity was assessed by antibody binding to transiently transfected HEK293-6E cells by flow cytometry. Binding was evaluated to HEK293-6E cells transiently transfected with human LILRB-1, -2, -3, -4, and 5 plasmids (Origene, Nos. RC219949, RC217935, RC211228, RC220932, RC206516) or to cells transiently transfected with human LILRA-1, -2, -4, -5, and -6 plasmids (Origene, Nos. RC210808, RC205626, RC220452, RC212310 RC212965). […] At a concentration of 1 μg/mL, no binding of B21A1 or the humanized variants to LILRB-3, -4, or -5 was observed (Table 7). Additionally, no binding to LILRA-1, -2, -4, -5, or -6 was observed, confirming the specificity of B21A1 and its humanized variants to LILRB1 and LILRB2 (Table 8).

T6 sequence (P59901 24-499): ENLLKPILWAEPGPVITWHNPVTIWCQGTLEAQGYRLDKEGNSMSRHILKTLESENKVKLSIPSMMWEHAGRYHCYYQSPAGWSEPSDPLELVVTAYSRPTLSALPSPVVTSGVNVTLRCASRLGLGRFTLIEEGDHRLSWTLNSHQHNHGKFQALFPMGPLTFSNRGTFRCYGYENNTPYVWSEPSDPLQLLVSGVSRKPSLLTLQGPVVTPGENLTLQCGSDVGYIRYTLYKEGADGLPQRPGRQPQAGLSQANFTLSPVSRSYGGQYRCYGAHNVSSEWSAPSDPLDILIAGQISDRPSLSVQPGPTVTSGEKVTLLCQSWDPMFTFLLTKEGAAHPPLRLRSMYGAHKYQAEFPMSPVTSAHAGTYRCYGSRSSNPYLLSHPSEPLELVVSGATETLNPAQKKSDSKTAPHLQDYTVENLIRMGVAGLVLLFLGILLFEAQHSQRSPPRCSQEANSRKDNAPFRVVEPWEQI

Row | MFI [MFI] | binding result | Binder
17 | 143 | no binding (tested: 1 µg/mL) | B1
18 | 136 | no binding (tested: 1 µg/mL) | B2
19 | 112 | no binding (tested: 1 µg/mL) | B3
20 | 112 | no binding (tested: 1 µg/mL) | B4

molecular target: T1, human LILRB2 on cells; assay: flow cytometry, HEK293-6E transfectants
Experimental: as §4

Row | MFI [MFI] | Binder
21 | 5380 | B1
22 | 5700 | B2
23 | 6290 | B3
24 | 6210 | B4

molecular target: T7, human LILRB3 on HEK293-6E cells (human, UniProt O75022 24-631); assay: flow cytometry, HEK293-6E transfectants
T7 construct: whole, on cells; also called hLILRB3
Experimental: as §4

Row | MFI [MFI] | binding result | Binder
25 | 107 | no binding (tested: 1 µg/mL) | B1
26 | 98.7 | no binding (tested: 1 µg/mL) | B2
27 | 89.2 | no binding (tested: 1 µg/mL) | B3
28 | 82.2 | no binding (tested: 1 µg/mL) | B4

molecular target: T8, human LILRA1 on HEK293-6E cells (human, UniProt O75019 17-489); assay: flow cytometry, HEK293-6E transfectants
T8 construct: whole, on cells; also called hLILRA1
Experimental: as §4

T8 sequence (O75019 17-489): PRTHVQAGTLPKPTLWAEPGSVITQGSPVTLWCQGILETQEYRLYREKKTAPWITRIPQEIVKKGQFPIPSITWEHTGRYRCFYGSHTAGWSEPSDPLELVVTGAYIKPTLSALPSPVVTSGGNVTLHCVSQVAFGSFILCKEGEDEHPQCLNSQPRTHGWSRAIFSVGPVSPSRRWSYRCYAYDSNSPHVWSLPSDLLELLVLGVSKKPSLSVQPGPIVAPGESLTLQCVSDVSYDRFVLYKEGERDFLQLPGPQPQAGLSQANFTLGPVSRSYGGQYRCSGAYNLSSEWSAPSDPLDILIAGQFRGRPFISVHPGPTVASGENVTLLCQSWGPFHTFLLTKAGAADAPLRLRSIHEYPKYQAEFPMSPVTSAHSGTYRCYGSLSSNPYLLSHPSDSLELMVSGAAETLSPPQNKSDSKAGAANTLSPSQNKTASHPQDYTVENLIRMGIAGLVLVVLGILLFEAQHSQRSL

Row | MFI [MFI] | binding result | Binder
29 | 264 | no binding (tested: 1 µg/mL) | B1
30 | 290 | no binding (tested: 1 µg/mL) | B2
31 | 204 | no binding (tested: 1 µg/mL) | B3
32 | 276 | no binding (tested: 1 µg/mL) | B4

molecular target: T9, human LILRB5 on HEK293-6E cells (human, UniProt O75023 24-590); assay: flow cytometry, HEK293-6E transfectants
T9 construct: whole, on cells; also called hLILRB5
Experimental: as §4

T9 sequence (O75023 24-590): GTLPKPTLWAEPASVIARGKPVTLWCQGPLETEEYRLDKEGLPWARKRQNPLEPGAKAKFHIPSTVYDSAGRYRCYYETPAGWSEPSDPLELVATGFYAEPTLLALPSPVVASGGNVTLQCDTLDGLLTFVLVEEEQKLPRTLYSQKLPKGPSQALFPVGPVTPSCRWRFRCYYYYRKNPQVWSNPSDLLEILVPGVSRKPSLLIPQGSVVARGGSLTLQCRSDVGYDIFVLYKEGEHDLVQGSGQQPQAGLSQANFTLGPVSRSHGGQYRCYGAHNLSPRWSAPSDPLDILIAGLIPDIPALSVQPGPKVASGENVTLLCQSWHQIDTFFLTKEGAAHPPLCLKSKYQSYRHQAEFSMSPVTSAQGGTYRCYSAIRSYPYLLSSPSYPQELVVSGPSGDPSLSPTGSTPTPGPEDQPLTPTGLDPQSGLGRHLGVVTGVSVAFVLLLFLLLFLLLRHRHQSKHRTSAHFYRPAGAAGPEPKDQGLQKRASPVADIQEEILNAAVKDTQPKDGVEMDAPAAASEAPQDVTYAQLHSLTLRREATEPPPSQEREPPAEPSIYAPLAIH

Row | MFI [MFI] | binding result | Binder
33 | 101 | no binding (tested: 1 µg/mL) | B1
34 | 93.8 | no binding (tested: 1 µg/mL) | B2
35 | 85.8 | no binding (tested: 1 µg/mL) | B3
36 | 87.8 | no binding (tested: 1 µg/mL) | B4

molecular target: T10, human LILRA2 on HEK293-6E cells (human, UniProt Q8N149 24-483); assay: flow cytometry, HEK293-6E transfectants
T10 construct: whole, on cells; also called hLILRA2
Experimental: as §4

T10 sequence (Q8N149 24-483): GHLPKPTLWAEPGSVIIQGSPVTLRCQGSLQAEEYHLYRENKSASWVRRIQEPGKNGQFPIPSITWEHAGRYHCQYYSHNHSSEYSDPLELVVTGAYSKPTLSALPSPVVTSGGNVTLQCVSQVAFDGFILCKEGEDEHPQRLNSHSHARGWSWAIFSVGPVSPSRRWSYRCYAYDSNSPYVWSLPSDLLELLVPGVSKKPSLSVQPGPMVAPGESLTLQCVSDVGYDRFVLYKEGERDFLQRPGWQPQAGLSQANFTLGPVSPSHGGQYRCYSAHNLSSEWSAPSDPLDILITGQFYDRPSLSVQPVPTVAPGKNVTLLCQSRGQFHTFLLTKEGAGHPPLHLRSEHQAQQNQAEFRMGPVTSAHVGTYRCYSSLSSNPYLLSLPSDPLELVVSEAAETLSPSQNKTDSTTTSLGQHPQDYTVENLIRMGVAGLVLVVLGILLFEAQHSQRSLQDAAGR

Row | MFI [MFI] | binding result | Binder
37 | 30.2 | no binding (tested: 1 µg/mL) | B1
38 | 28.9 | no binding (tested: 1 µg/mL) | B2
39 | 25.9 | no binding (tested: 1 µg/mL) | B3
40 | 26.6 | no binding (tested: 1 µg/mL) | B4

molecular target: T2, human LILRB1 on cells; assay: flow cytometry, HEK293-6E transfectants
Experimental: as §4

Row | MFI [MFI] | Binder
41 | 940 | B1
42 | 1140 | B2
43 | 860 | B3
44 | 963 | B4

molecular target: T11, human LILRB4 on HEK293-6E cells (human, UniProt Q8NHJ6 22-448); assay: flow cytometry, HEK293-6E transfectants
T11 construct: whole, on cells; also called hLILRB4
Experimental: as §4

Row | MFI [MFI] | binding result | Binder
45 | 35.2 | no binding (tested: 1 µg/mL) | B1
46 | 29.9 | no binding (tested: 1 µg/mL) | B2
47 | 27.4 | no binding (tested: 1 µg/mL) | B3
48 | 27.3 | no binding (tested: 1 µg/mL) | B4

molecular target: T12, human LILRA6 on HEK293-6E cells (human, UniProt Q6PI73 24-481); assay: flow cytometry, HEK293-6E transfectants
T12 construct: whole, on cells; also called hLILRA6
Experimental: as §4

T12 sequence (Q6PI73 24-481): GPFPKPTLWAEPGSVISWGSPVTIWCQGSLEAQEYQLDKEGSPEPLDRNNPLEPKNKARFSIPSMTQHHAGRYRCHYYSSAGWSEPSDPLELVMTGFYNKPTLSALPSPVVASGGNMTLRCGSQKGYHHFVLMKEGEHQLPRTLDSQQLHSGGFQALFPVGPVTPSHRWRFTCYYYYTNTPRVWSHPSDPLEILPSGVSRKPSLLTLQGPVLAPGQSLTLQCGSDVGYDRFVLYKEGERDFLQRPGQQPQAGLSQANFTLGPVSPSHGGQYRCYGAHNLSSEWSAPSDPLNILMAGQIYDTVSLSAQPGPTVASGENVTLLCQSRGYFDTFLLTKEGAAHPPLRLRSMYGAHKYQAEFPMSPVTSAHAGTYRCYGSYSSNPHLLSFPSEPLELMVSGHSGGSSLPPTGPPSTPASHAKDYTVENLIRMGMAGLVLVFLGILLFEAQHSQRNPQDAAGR

Row | MFI [MFI] | binding result | Binder
49 | 150 | no binding (tested: 1 µg/mL) | B1
50 | 147 | no binding (tested: 1 µg/mL) | B2
51 | 140 | no binding (tested: 1 µg/mL) | B3
52 | 151 | no binding (tested: 1 µg/mL) | B4

molecular target: T13, human LILRA5 on HEK293-6E cells (human, UniProt A6NI73 42-299); assay: flow cytometry, HEK293-6E transfectants
T13 construct: whole, on cells; also called hLILRA5
Experimental: as §4

T13 sequence (A6NI73 42-299): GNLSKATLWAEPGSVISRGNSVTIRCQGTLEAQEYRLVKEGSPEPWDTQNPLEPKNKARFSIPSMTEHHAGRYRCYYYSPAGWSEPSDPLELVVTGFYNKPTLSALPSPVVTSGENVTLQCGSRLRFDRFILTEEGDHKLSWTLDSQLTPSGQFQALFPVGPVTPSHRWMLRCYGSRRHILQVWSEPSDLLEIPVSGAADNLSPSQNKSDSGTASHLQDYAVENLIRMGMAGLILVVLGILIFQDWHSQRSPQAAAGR

Row | MFI [MFI] | binding result | Binder
53 | 78.5 | no binding (tested: 1 µg/mL) | B1
54 | 77.8 | no binding (tested: 1 µg/mL) | B2
55 | 73.1 | no binding (tested: 1 µg/mL) | B3
56 | 72.8 | no binding (tested: 1 µg/mL) | B4
